Data reported in the RNAGym collection of RNA variant scans (doi:10.1093/molbev/msab373).

B1: Azoarcus group I ribozyme (parent)
chain: GUGCCUUGCGCCGGGAAACCACGCAAGGGAUGGUGUCAAAUUCGGCGAAACCUAAGCGCCCGCCCGGGCGUAUGGCAACGCCGAGCCAAGCUUCGGCGCCUGCGCCGAUGAAGGUGUAGAGACUAGACGGCACCCACCUAAGGCAAACGCUAUGGUGAAGGCAUAGUCCAGGGAGUGGCGAAAGUCACACAAACCGG

Variants of: B1
Assay: reverse-splicing fitness (ratio to wild type); higher = more active; in vitro selection; Mg2+ level not given
Outline: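 An in vitro group I ribozyme library with randomized positions was T7-transcribed and gel-purified. In triplicate, 10 pmol RNA in EPPS pH 7.5 was reacted with 50 pmoles of a 30-nt RNA substrate for 1 h at 37 °C across several added MgCl2 levels (1–48 mM), then stopped with EDTA. Products were reverse transcribed from a substrate-complementary primer, PCR-amplified and sequenced (HiSeq 4000). Fitness is a variant's read proportion after selection over that before, normalised to wild type.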

Variant | reverse-splicing fitness
C82U A111G A120G A145C C150G C169U U176C | 0.0102
C82U A111G A120G A145C C150G C169U U176A | 0.0136
C82U A111G A120G A145C C150G C169U U176G | 0.00462
C82U A111G A120G A145U C169G U176A | 0.0112
C82U A111G A120G A145U C169G U176C | 0.0118
C82U A111G A120G A145U C169G U176G | 0.00372
C82U A111G A120G A145U C150U C169U U176C | 0.0131
C82U A111G A120G A145U C150U C169U U176A | 0.02
C82U A111G A120G A145U C150U C169U U176G | 0.00432
C82U A111G A120G A145G C150U C169A | 0.0108
C82U A111G A120G A145G C150U C169G | 0.0111
C82U A111G A120G A145G C150U C169U | 0.0114
C82U A111G A120G A145U C150U C169A U176C | 0.00928
C82U A111G A120G A145U C150U C169A U176G | 0.0045
C82U A111G A120G A145U C150U C169A U176A | 0.0119
C82U A111G A120G A145U C169A U176C | 0.00896
C82U A111G A120G A145U C169A U176A | 0.0102
C82U A111G A120G A145U C169A U176G | 0.00425
C82U A111G A120G C150A C169G U176G | 0.00435
C82U A111G A120G C150A C169G U176C | 0.0197
C82U A111G A120G C150A C169G U176A | 0.0186

Variant | reverse-splicing fitness
C82U A111G A120C U176C | 0.0288
C82U A111G A120C U176A | 0.0204
C82U A111G A120C U176G | 0.00542
C82U A111G A120C C169U U176A | 0.0149
C82U A111G A120C C169U U176C | 0.014
C82U A111G A120C C169U U176G | 0.00349
C82U A111G A120C A145U C150U C169G U176C | 0.0121
C82U A111G A120C A145U C150U C169G U176A | 0.0133
C82U A111G A120C A145U C150U C169G U176G | 0.00414
C82U A111G A120G A145G C150A C169G U176A | 0.0174
C82U A111G A120G A145G C150A C169G U176C | 0.0228
C82U A111G A120G A145G C150A C169G U176G | 0.00482
C82U A111G A120C C150U C169G U176G | 0.00447
C82U A111G A120C C150U C169G U176A | 0.0205
C82U A111G A120C C150U C169G U176C | 0.0156
C82U A111G A120G A145C C150G C169G U176C | 0.00692
C82U A111G A120G A145C C150G C169G U176A | 0.00868
C82U A111G A120G A145C C150G C169G U176G | 0.00399
C82U A111G A120G A145G C150U C169A U176G | 0.00562
C82U A111G A120G A145G C150U C169A U176C | 0.0148
C82U A111G A120G A145G C150U C169A U176A | 0.0143

Variant | reverse-splicing fitness
C82U A111G A120G A145U C150G C169A U176A | 0.00905
C82U A111G A120G A145U C150G C169A U176C | 0.00917
C82U A111G A120G A145U C150G C169A U176G | 0.00391
C82U A111G A120G A145C C150G C169A U176G | 0.00439
C82U A111G A120G A145C C150G C169A U176A | 0.00781
C82U A111G A120G A145C C150G C169A U176C | 0.00579
C82U A111G A120C A145U C169U U176A | 0.0139
C82U A111G A120C A145U C169U U176G | 0.00307
C82U A111G A120C A145U C169U U176C | 0.0132
C82U A111G A120G A145C C169A U176C | 0.00572
C82U A111G A120G A145C C169A U176A | 0.011
C82U A111G A120G A145C C169A U176G | 0.00366
C82U A111G A120C C150U C169A U176A | 0.0164
C82U A111G A120C C150U C169A U176C | 0.011
C82U A111G A120C C150U C169A U176G | 0.00397
C82U A111G A120C A145U C150U C169U U176G | 0.00402
C82U A111G A120C A145U C150U C169U U176C | 0.0124
C82U A111G A120C A145U C150U C169U U176A | 0.0157
C82U A111G A120C A145U C150U | 0.0338
C82U A111G A120G A145U C150A C169G U176C | 0.0137
C82U A111G A120G A145U C150A C169G U176A | 0.0124

Variant | reverse-splicing fitness
C82U A111G A120G A145U C150A C169G U176G | 0.00398
C82U A111G A120G A145G C150G U176G | 0.00546
C82U A111G A120G A145G C150G U176A | 0.00637
C82U A111G A120G A145G C150G U176C | 0.00856
C82U A111G A120G A145U C150U C169G U176C | 0.0132
C82U A111G A120G A145U C150U C169G U176A | 0.0116
C82U A111G A120G A145U C150U C169G U176G | 0.00409
C82U A111G A120C A145U C150G U176G | 0.00286
C82U A111G A120C A145U C150G U176A | 0.00455
C82U A111G A120C A145U C150G U176C | 0.00882
C82U A111G A120C C169U | 0.0118
C82U A111G A120C C169G | 0.00773
C82U A111G A120C C169A | 0.00806
C82U A111G A120G A145C C150U C169G U176A | 0.0203
C82U A111G A120G A145C C150U C169G U176G | 0.0045
C82U A111G A120G A145C C150U C169G U176C | 0.0111
C82U A111G A120C A145U U176C | 0.0251
C82U A111G A120C A145U U176A | 0.017
C82U A111G A120C A145U U176G | 0.00658
C82U A111G A120G A145G C169U U176A | 0.0209
